According to article PMC9358478 (The Journal of Biological Chemistry, 2022):

Target: T1, full-length recombinant human TG2 (human, UniProt P21980 1-687)
T1 sequence: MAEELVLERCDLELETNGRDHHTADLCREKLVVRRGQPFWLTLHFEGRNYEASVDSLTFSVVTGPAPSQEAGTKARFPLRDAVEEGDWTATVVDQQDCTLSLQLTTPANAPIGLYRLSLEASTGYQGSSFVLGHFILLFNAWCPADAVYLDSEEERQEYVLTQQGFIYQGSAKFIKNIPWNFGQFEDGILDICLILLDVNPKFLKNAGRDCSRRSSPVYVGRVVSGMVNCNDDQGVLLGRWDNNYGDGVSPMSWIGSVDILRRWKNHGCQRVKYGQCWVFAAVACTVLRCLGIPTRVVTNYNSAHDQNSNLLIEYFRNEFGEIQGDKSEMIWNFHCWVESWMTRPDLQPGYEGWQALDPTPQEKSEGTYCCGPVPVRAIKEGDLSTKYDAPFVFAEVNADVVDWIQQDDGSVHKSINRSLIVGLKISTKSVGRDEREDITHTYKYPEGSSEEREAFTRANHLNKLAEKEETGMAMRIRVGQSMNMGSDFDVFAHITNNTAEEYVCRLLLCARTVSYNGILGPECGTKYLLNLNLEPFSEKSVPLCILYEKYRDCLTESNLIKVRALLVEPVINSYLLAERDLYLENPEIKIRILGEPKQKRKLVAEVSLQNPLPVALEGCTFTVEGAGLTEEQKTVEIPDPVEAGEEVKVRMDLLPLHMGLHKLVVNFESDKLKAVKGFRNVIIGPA
Assay: co-IP

B1: full-length recombinant human ILK (natural protein)
chain: MDDIFTQCREGNAVAVRLWLDNTENDLNQGDDHGFSPLHWACREGRSAVVEMLIMRGARINVMNRGDDTPLHLAASHGHRDIVQKLLQYKADINAVNEHGNVPLHYACFWGQDQVAEDLVANGALVSICNKYGEMPVDKAKAPLRELLRERAEKMGQNLNRIPYKDTFWKGTTRTRPRNGTLNKHSGIDFKQLNFLTKLNENHSGELWKGRWQGNDIVVKVLKVRDWSTRKSRDFNEECPRLRIFSHPNVLPVLGACQSPPAPHPTLITHWMPYGSLYNVLHEGTNFVVDQSQAVKFALDMARGMAFLHTLEPLIPRHALNSRSVMIDEDMTARISMADVKFSFQCPGRMYAPAWVAPEALQKKPEDTNRRSADMWSFAVLLWELVTREVPFADLSNMEIGMKVALEGLRPTIPPGISPHVCKLMKICMNEDPAKRPKFDMIVPILEKMQDK
  binding result: binds
